Reference: patent US20150352207A1, “USE OF ANTIBODIES AGAINST ICAM-1 IN COMBINATION WITH AN ANTI CANCER DRUG IN THE TREATMENT OF PATIENTS” (BIOINVENT INTERNATIONAL AB, priority 2013, published 2015)
Where two headings read alike, the source gives them in different places.

Columns and labels:
[1] = target: T1, mouse FcγRIV (Mus musculus, UniProt A0A0B4J1G0); test: B11 isotype variant binding to FcγR (Biacore), mouse FcγRIV
T1 construct: made in house; host or cells: HEK293E (transient, adherent)
T1 sequence (A0A0B4J1G0 21-249): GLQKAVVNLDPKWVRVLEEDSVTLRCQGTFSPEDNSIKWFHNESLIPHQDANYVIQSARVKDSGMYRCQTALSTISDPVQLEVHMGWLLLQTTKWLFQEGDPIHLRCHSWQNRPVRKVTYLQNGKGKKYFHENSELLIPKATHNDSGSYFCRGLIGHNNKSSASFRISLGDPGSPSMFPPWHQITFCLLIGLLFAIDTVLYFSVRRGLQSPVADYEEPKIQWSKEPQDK
Procedure: His-tagged human FcγRIIIa or mouse FcγRIV were expressed transient in adherent HEK293E cells, purified using Ni-NTA chromatography and characterized using SDS-PAGE and/or Biacore. Surface plasmon resonance (SPR) measurements were performed using a Biacore 3000 instrument. Goat α-human-F(ab)′2 F(ab)′2 fragment (Jackson laboratories) was immobilised with a CM-5 chip using a standard amine coupling protocol. IgG1 B11, IgG4 B11, or 297Q B11 were diluted to 15 and 60 μg/mL respectively and added to the surface at […] for 3 min. His tagged human FcγRIIIa or mouse FcγRIV were pre-incubated with an α-HIS antibody (R&D Systems) at a 2:1 molar ratio before addition to the chip surface, 30 μL/min, 1 min. After each cycle the surface was regenerated twice with glycine buffer pH 1.7.

[2] = tested on: PBMC; test: PBMC cytokine release; assay type: cell-based
From the text: (§1) We next assessed IgG B11 effects on PBMC cytokine release and cell proliferation. In order to maximize chances of identifying any PBMC agonistic properties of IgG B11, we used two different antibody coating-protocols where antibody is hyper-cross-linked as previously described (62).

[3] = tested on: PBMC; test: PBMC / T cell proliferation; assay type: cell-based; details: immobilised antibody or in solution
From the text: as §1

[4] = tested on: HUVEC, HMVEC or peripheral blood B cells; test: CDC of normal ICAM-1 expressing cells; assay type: cell-based
Procedure: (§2) Target cells were harvested and incubated in RPMI medium with antibodies at 5 μg/mL or at titrated concentrations between 0.01-100 μg/mL for 60 min on ice. Cells were thereafter washed and resuspended in cold medium before dispension into flow cytometry tubes. Treatments were performed in triplicates. Human serum, normal or heat-inactivated, (Sigma, Sweden) was added to tubes and the samples were incubated for 2 h at 37° C. After completed incubation ToPo-Pro-3 was added at a final concentration of 0.3 μM and cells were analyzed for membrane permeabilization using flow cytometry.

[5] = tested on: Daudi cells; test: Subcutaneous scid/Daudi non-Hodgkin lymphoma xenograft; assay type: in vivo, scid mice; details: twice weekly i.p. from day 1
[6] = tested on: ARH-77 cells; test: Subcutaneous scid/ARH-77 xenograft, treatment from the day after cell inoculation (prophylactic model)
Procedure: Tumor cells were injected subcutaneously into the left flank of SCID mice. Mice received twice-weekly intraperitoneal injections with B11, control antibody or rituximab at doses of 20, 2 and/or 0.2 mg/kg commencing one day after tumor cell inoculation. There were 8 to 10 animals per treatment group. (A) Tumor volume as a function of antibody dose. (B) Kaplan-Meier survival graph as a function of antibody dose. […] Statistical significance was calculated relative to control antibody treatment using Kruskal-Wallis Test (Nonparametric ANOVA) with Dunn's Multiple Comparisons Test (tumor volume) or the log-rank test (mouse survival) using Graphpad Instat or Prism software, respectively. Statistical significance was considered for *p<0.05, **p<0.01, and ***p<0.001.
Tumor cells were injected subcutaneously into the left flank of SCID mice. Mice received twice-weekly intraperitoneal injections with B11 at doses of 0.02-20 mg/kg commencing day after tumor cell inoculation. There were 8-10 animals per treatment group. (A) Tumor volume as a function of antibody dose. (B) Kaplan-Meier survival graph as a function of antibody dose. Statistical significance was calculated relative to control antibody treatment using Kruskal-Wallis Test (Nonparametric ANOVA) with Dunn's Multiple Comparisons Test (tumor volume) or the log-rank test (mouse survival) using Graphpad Instat or Prism software, respectively. Statistical significance was considered for *p<0.05, **p<0.01, and ***p<0.001. Graphs illustrate representative experiments out of several performed.
(§4) (A) ARH-77 cells were injected subcutaneously into the left flank of SCID mice (n=8 per group). Mice were treated with the different B11 isotypes twice weekly. […] Statistical significance was calculated relative to control antibody treatment using Kruskal-Wallis Test (Nonparametric ANOVA) with Dunn's Multiple Comparisons Test. Statistical significance was considered for *p<0.05, **p<0.01, and ***p<0.001.
Mice were anaesthetized with a mixture of sevofluran and oxygen prior to myeloma cell inoculation and 1-5×10^6 myeloma cells were then subcutaneously injected in a volume of 100 μl into the left flank. Treatment with antibodies by intraperitonial (i.p.) injections was started either the day after cell inoculation (prophylactic model) or when tumors reached a size of approximately 100 mm^3 (established model).

[7] = tested on: ICAM-1 expressing tumor cell lines; test: Complement-dependent cytotoxicity (CDC) in tumor cell lines; assay type: cell-based; details: panel of ICAM-1 expressing tumor cell lines
Procedure: as §2

[8] = tested on: NCI-H929 myeloma cells; test: Subcutaneous scid myeloma xenograft, NCI-H929; assay type: in vivo, scid mice; details: 2 mg/kg twice weekly
Procedure: Antibody treatment with 2 mg/kg B11 or control IgG1 was started at Day 1 and was continued on a twice-weekly intraperitoneal dosing regimen. Mice were sacrificed when tumor sizes reached the ethical limit.

[9] = tested on: B lymphoma cell line (CL-01); test: Antibody-dependent cell-mediated cytotoxicity (ADCC) with natural killer effector cells; assay type: cell-based; details: human Natural Killer effector cells
From the text: Buffy coats from human donors (ordered through Blodcentralen, Lund) were used to isolate peripheral blood mononuclear cells (PBMCs), and subsequently NK cells. Briefly, peripheral blood components were separated using Ficoll Paque PLUS (Amersham Biosciences, Sweden) in LeucoSep tubes (Greiner Bio-One). The PBMC fraction was removed and thoroughly washed in ice-cold DPBS (Invitrogen), before magnetic labeling and separation of the NK cell population using positive or negative NK cell isolation kits and MACS LS columns (Miltenyi Biotec). The purity of the obtained NK cell fractions was analyzed using flow cytometry, after staining with α-CD56 antibodies (BD Biosciences). Target cells were harvested, and incubated in medium with or without the respective antibodies (2 μg/mL) for 60 min on ice. Cells were thereafter washed and resuspended in cold medium before dispension into FACS tubes. Subsequently, isolated NK cells were diluted in ADCC medium and dispensed together with the respective antibody-coated target cells at varying effector/target cell ratios (40:1, 20:1, 5:1 and 1:1). All experiments were performed in triplicates. After completed incubation ToPo-Pro-3 dye and counting beads (Invitrogen) were added and cells were analyzed for membrane permeabilization using flow cytometry.

[10] = tested on: ARH-77 xenograft tissues; details: compared to control IgG, untreated and rituximab-treated mice
Procedure: as §4

[11] = tested on: HUVEC, HMVEC or peripheral blood B cells; test: ADCC of normal ICAM-1 expressing cells; assay type: cell-based
[12] = tested on: Daudi lymphoma cells; test: Programmed cell death (PCD) assay, Daudi cells; assay type: cell-based
Procedure: (§3) Target cells were seeded in 96-well culture plates at a density of 2×10^6 cells/mL culture medium. Titrated concentrations of IgG1 B11 or different negative and positive control antibodies were added to the cells, in the absence or presence of anti-human Fab fragment (Jackson ImmunoResearch) for cross-linking. The cells were then incubated for 16 hours at 37° C. in a humidified atmosphere of 5% CO2. The cells were harvested and stained for Annexin V-488/Propidium Iodide (Invitrogen, Sweden) and analysed using flow cytometer (FACS Calibur, BD Bioscience).

[13] = tested on: HUVEC and HMVEC endothelial cells; test: PCD in normal ICAM-1 expressing endothelial cells; assay type: cell-based; details: resting or activated HUVEC/HMVEC
Procedure: as §3

[14] = tested on: peripheral blood B cells; test: PCD in normal peripheral blood B cells; assay type: cell-based; details: resting or activated peripheral blood B cells
Procedure: as §3

B1: IgG B11: novel human ICAM-1 antibody targeting the B11 epitope, isolated from the naïve antibody library n-CoDeR (antibody, V domains shown)
VH: EVQLLESGGGLVQPGGSLRLSCAASGFTFSNAWMSWVRQAPGKGLEWVAFIWYDGSNKYYADSVKGRFTISRDNSKNTLYLQMNSLRAEDTAVYYCARYSGWYFDYWGQGTLVTVSS
VL: QSVLTQPPSASGTPGQRVTISCTGSSSNIGAGYDVHWYQQLPGTAPKLLIYDNNNRPSGVPDRFSGSKSGTSASLAISGLRSEDEADYYCQSYDSSLSAWLFGGGTKLTVLG
modifications: B11 antibody variable H region; B11 antibody variable L region
binding to murine FcγRIV [1]: strong binding
PBMC cytokine release ([2]; antibody in solution, resting or lipopolysaccharide pre-stimulated PBMCs): did not induce or enhance cytokine release
PBMC cytokine release ([2]; immobilised antibody, or in solution with or without cross-linking reagent): did not, however, induce PBMC cytokine release
PBMC cytokine release ([2]; immobilised antibody, or in solution with or without cross-linking reagent, listed as B11): not significantly affected
cell proliferation [3]: did not induce cell proliferation
cell proliferation ([3]; listed as B11): not significantly affected
CDC of normal cells [4]: did not confer ADCC or CDC
CDC of normal cells ([4]; listed as B11): not significantly affected
survival of tumor bearing mice [5]: prolonged survival of tumor bearing mice
tumor growth [5]: significantly and equally efficaciously compared to rituximab, prevented tumor growth
tumor growth ([6]; 20 mg/kg twice weekly i.p., commencing one day after tumor cell inoculation): completely prevent tumor-growth
anti-tumor activity in dose-titration experiment ([6]; B11 0.02-20 mg/kg twice weekly i.p.): peaked at the 2 mg/kg dose and remained near maximal at a dose of 0.2 mg/kg
survival ([6]; IgG B11 at 2 mg/kg, ten-fold lower dose than rituximab): complete survival
anti-tumor activities of IgG B11 isotype switch variants (rank order) ([6]; twice weekly treatment, s.c. ARH-77): increased in the order of IgG1N297Q<IgG4<IgG1
induction of CDC [7]: did not induce CDC
reduction of myeloma tumor growth [8]: 99%
ADCC of target tumor cells ([9]; listed as B11): mediated FcγRIIIA-dependent ADCC
ADCC of target tumor cells ([9]; listed as IgG B11 IgG1): mediated ADCC of target tumor cells
F4/80 positive host effector cell (macrophage) infiltration of tumor tissue [10]: massive influx
F4/80 positive host effector cell (macrophage) infiltration of tumor tissue ([10]; listed as B11): significantly increased
ADCC of normal cells [11]: did not confer ADCC or CDC
ADCC of normal cells ([11]; listed as B11): not significantly affected
PCD-induction ([12]; ICAM-1 expressing Daudi lymphoma cells): dose dependent PCD-induction
programmed cell death by immobilised antibody ([12]; antibody immobilised by either coating protocol, data not shown): induced programmed cell death
programmed cell death of normal endothelial cells [13]: did not, however, induce PCD
programmed cell death of normal B cells [14]: did not, however, induce PCD
programmed cell death of normal B cells ([14]; listed as B11): not significantly affected
